Consider one substance from article PMC7820495.

In this experiment the target is GST-SVIP (Drosophila SVIP, CG32039) (Drosophila) (UniProt Q8IQC6). Kind of experiment: pull-down; in vitro binding titration assay of GST-SVIP with MBP-VCP wild type and disease-relevant mutants; binding curves and affinities in Fig. 7b-e.
Chain of GST-SVIP (Drosophila SVIP, CG32039) (Drosophila) (Q8IQC6 entry or part of it): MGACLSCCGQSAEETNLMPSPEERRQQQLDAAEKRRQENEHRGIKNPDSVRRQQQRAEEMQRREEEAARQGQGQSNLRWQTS

Substance “MBP-VCP^P134L (Drosophila VCP) (from UniProt Q7KN62 1-801) (domain or fragment)” came in with a fold reduction of SVIP–VCP affinity against wild type of over 30 fold.
